Test: label from the status in PepcDB records
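Further: failed if final PepcDB status was selected cloned or expressed and not failed if soluble or beyond.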

| Sequence | protein production |
| --- | --- |
| MSCKKTEKFSETWFFKWILNNQAVVSFLILLLIGLTVLIFTKISPIFSPVIQFLTIVMLPLVISMLLYYLIKPLVLLVERTGLNRTMSILVIYAILALLLVWGISTAIPNLQDQILILLRNAPSYISRANSETERWLKLPILSNFHGDLEAMLSDFSARMINYAENFSTSALSWIGTFASTVARVTVAIILTPFILFYLLRDSQKLKHSFVSALPTRFRETTVRMLSDINNQLEGYVRGQVTVAIVIAIMFCIMFKIVGLRYGMTFGILAGFLNMIPYLGSFIAMVPVVIMGLVQGPTMLIKVLIIFVIEQTIEGRFVSPLVLGNKLSIHPITIMFILLTAGSLYGVWGVLLGIPIYASVKVIVKDIFDWYRSVSNLYQDDIEIKGQKYDVK | failed |
| MKSILSLFSGIGGLCHHGIAAAGLSHKFQVKQFVEISPYSQSRLRHEQPQTPIHSDITTYHCHRGQFDIVAGGLPCQGTSNAGNRQGLDDPRSALWAEQFRIIESDRPAIALIENPTGLLYRGLEQIICDLDSIGYMGEWNCISAQQVGLPHQRKRIFIIAYSNGLFNQVVPAPWSNQIGNHITQVRLSLETRSYQPGISKVASRIPIGVAKNIPGNYDARRAYGLSCSPRQAAVAWKRIDYLCSLLSYQEAS | failed |
| MMAPPSQVQGRLSSSMNKSLALLTVTLLLGGCQSLIHKTPDGTPPVEDTAVETKAKPEKYGSFSEDSLYSLLVAELAGQRNRFDIALSNYVVQAQKTRDPGVSERAFRIAEYLGADQEALDTSLLWARSAPDNLDAQRAAAIQLARAGRYEESMVYMEKVLNGQGDTHFDFLALSAAETDPDTRAGLLQSFDHLLKKYPNNGQLLFGKALLLQQDGRPDEALTLLEDNSASRHEVAPLLLRSRLLQSMKRSDEALPLLKAGIKEHPDDKRVRLAYARLLVEQNRLDDAKAEFAGLVQQFPDDDDLRFSLALVCLEAQAWDEARIYLEELVERDSHVDAAHFNLGRLAEEQKDTARALDEYAQVGPGNDFLPAQLRQTDVLLKAGRVDEAAQRLDKARSEQPDYAIQLYLIEAEALSNNDQQEKAWQAIQEGLKQYPEDLNLLYTRSMLAEKRNDLAQMEKDLRFVIAREPDNAMALNALGYTLADRTTRYGEARELILKAHKLNPDDPAILDSMGWINYRQGKLADAERYLRQALQRYPDHEVAAHLGEVLWAQGRQGDARAIWREYLDKQPDSDVLRRTIKRLTGAETP | failed |
| MGTRWFAKNTTMSKNSIVIGVDLDGVCADFYGRMRQIASEWFERPIDELPEEVSWGLSEWGITNPSQYDSLHRFAVTQRELFSSMEAIPGARKYLRQLSDEGFRIRIITHRLFIHYFHATAVQQTVNWLDSHGIPYWDLCFVKEKTQVGADIYIEDSPENVAQLRGRGLFTICFGNSTNRHIEELRAASWQDVYDMIKAFVT | failed |
| MELRTPGTKWSPQGIGSLRRVVWDYSTPEISLFSEEGLKGEQVKLTEALKNSQGLEKPLQVASATVSAGLWLLYPKPLFEDTPYILEPGEYPTSEAWGTSDPSVGSLKPMRLGCPSVEKPGEPRAVVYEAPGFQGRSWEVSRDIYNLQQPEDSQSPHLASVGSLRVLGGCWVGYEKEGFRGHQYLLEEGEYPDWSHWGGYDELLTSLRVIRTDFGDPAVVLFEAMDFEGHGVEVSKALPDVELVQHGPSTQAIHVLSGVWVAYQEVGFSGEQYVLEKGVYRNCEDWGAGNSTLASLQPVLQVGEHDLHFVSKIQLFSRPDFLGDHFSFEDDQAALPASFRPQSCRVHGGSWILFDETNFEGDQHILSEGEFPTLTAMGCLASTVLGSLQKVSLHFSEPSIFLYGLECFEGKEIELSREVRSLQAEGFNNHVLSVRIKGGIWVLCEHSDFRGRQWLVGSCEITNWLTYSGTQRVGSLYPIKQRRVYFRLWNAALGGFLAVPDHVEDMKAGRVVVADPQAGGSCIWYYEDGLLKNQMAPTMSLQVIGPPSPGSKVVLWAESRLPRQTWSISESGHICSQMFEGQILDVKGGRGYDRDHVVLWEPDEDRASQIWTIHVL | failed |
| MDMTYYDHGTPAERWERARMFFDAKDYAAAARVLDGLVAQVPEQTGPRLLLARSYYHSAQLRRAEAELRVVVERDPVEHYARLMLGRTLERQGRQEEADAQLRIASALAGDFAEL | failed |
| MRYLFSLLFLLAYGSTVAQQPPMLPRDAAIEAKIEKLLEQMSLDEKIGQMVELEIGMITYRDPRYVVEKLARMSEQELADTLRRFGLDKQHNAAQLALTTPEDKQNKEKLMRLYWVSNDIQSKLPFRLDEAALDSVVGKYKVGSILNAPQTTAQTPAMWNQVVKTIQDVSIKHLGIPTVYGLDQMHGTTYSTGGTLFPGAINMAATFNRDLVYKMGEIVAYETRACNVPWIYGPCIDLGRMQAWSRQYESFGEDVFLSSEMGAAALRGMQGDNPNHIDAYHVAGCLKHYFAYGAPYNGLDRSPARLSYEELREKQFAPFLRGIREGALSIMTNSSNVNGVKGTVNREFITGWLKEGLGWDGMVVTDWGDIDGAVTSDRVVPTAKEAIRLAINAGVDMMMVPSQFTYNGLLKELVEEGGVSMERIDDAVRRILRLKHRVGLFEQPNTFAKDYPKFGSEEFAAYSRQAALESIVLLKNDSVDSQSRLLPIKQGTRLLVCGPNANSMRTLNGGWSYTWQGDGADREEFTGHFNTIYEALRNKFGSNHVTLVEGVSYDSKRWAMDHADNIGDAVAAAADNDYVIVCIGENTYAETRGNIADINLSTNQKNLVKALAATGKPIILVLNESRGRAISDIEPLAKAVVHTMLPGNYGGDALAELLAGNENFSGRLPYTYSAQPNAMVNYDYKASEVRETISGVYDYNAKTYEQWWFGAGMSYTTYTYSNLRADKNSFTKDDVLTFTVDVKNTGAMAGKETVMLYASDLYASLMPDNRRLRGFEKIVLAPDESKTVTFRIKASDLAFMGTGKKWTLEAGEFNIACGDQSVSIHCTEDYTWEEENIPDN | failed |
| EVKEEDAFYSKKCKLFYKKDNEFKEKGIGTLHLKPTANQKTQLLVRADTNLGNILLNVLIPPNMPCTRTGKNNVLIVCVPNPPIDEKNATMPVTMLIRVKTSEDADELHKILLEKKDA | not failed |
| MLKNLRIRKFEPEEEYVHFTYSIKNSEREKSKELIKEYRTLLQKAIDYLWNLTKIQVRKKNGSYKITLPKKKEVYKPLREELEKINHLASHYVDKAINDAFSILKSWRKRAIKGRASIEKPTLKKAYVRIKTTLRKVVGESVRITVRPYEYITFSWSKSWFSRRVRELELGEPIIKEEKVYLPFRYKLPWVTPVNFLAIDSNLYTLDAYDGEKFVTISLKQLYSLKYSMEVKRAKVQSFASKHTKRGRELMRKYSHRERNRVLDFVHKFVNTLLDLYPMTFFAVEKLNKESMFKDANGSLSRKISRTVWRSIHRVLKYKAPLYGSFVKEVNPHLTSRSCPRCGFVSRKVGKTFECERCGFKLDRQLNASLNIYLKMCGFPHIRDIPRVWVGVIPLMGRRGMNVRDFGEAQGLRIDIKYHEILLEHHHHHH | failed |
| MASYSLVESNSFGSENWCLKLQPSYKHGLLTGLSNGEIRLLDWSTGKSVQKIKASETAINDMKVIGSDFSAGHLVSSASIDAVKVFDIRTNDRIAQIQNEANSPFISLDSRHGLLACGTELQGIDAAVYIYDIRKWDTPLRSLIDSHHDDVTCIKFHPSDVNILLSGSTDGYTNIYDLKQDEEEDALHQVINYASIHSCGWLSPKRIFTLSHMETFAIHELNDKSDELKEPQPLDFGDVREIWNCDYVVDIYPGLIATGKTQENCGELCLLPFKDEKVDTENGIVIPHAHGDEVVRDIFIPAQHSNMLYSCGEDGCVKIWENKQGPLDIPENFWDYSKKMNVLGDDDREGSINLDEPLIIQKESVSTRPRKEKHKKAKKHSMKSRFKPY | failed |
| MSLELGQAMVTVAGIGCRKGAASDAIIAAVRAAERAFGVTVDYLATAPLKADEAGLAEAAKGLSLSLEIVAQERLEAVAAETMTFSQASLDHSGSPSVSEAAALAAAGAGARLVAPRLVVGDVTVAIAMTSDAPHGSRSAIEYGEQEEGHHHHHH | not failed |
| MPPAPVFLLLAAGASRRMRGADKLMEPVAGEPLLRLQARRGIAAGLAVLVTLPPDRPERWAALEGLAVQRLPVPDAAEGLAASIRAGVAAAPPDAAVLLLLADLPEIEATDLAQMAALHREAPKALLRATTADGRPGHPILFPADLRPELQALKGDQGARRILERAAGRLRLVPLAGTRAVTDLDTPEDWALWRARTGHLEHHHHHH | failed |
| MGEYYHATVNGVVEYGAFVDLSEHVSGLIHESTYSGDPDLAVDDDVIVHLSAVRDNGDLSFEFVDPEEYRTEQRSHAYERTTADAVGLEHHHHHH | not failed |

— a protein production outcome set (Wang et al. 2014)
